Results published in the RNAGym collection of RNA variant scans (doi:10.7554/elife.90254).

B1: OR4K15 (parent)
chain: GUUAACGGUCAUAGGCCAUGGAAACUAGGAGCACCAUUUCGCUGCCAGUGAAGAAAUGAACAAAGAAAAUCUGGGCCAGGCAGGCAUCAAAAGAAAUAGUCUUGCGCUCAACCAGAAAGUCUGUAAUCAUUUUAAGGGUA

Variants of: B1
Test: self-cleavage, relative activity (ratio to wild type); higher = more cleavage; in vitro, sequencing; the parent is a self-cleaving ribozyme
A118G G138A gave a self-cleavage of 1.14.
A114C U131C showed a self-cleavage of 0.02.
Work on A118G U127C yielded a self-cleavage of 0.24.
With A118G U127A the self-cleavage was 1.26.
A129G G137A showed a self-cleavage of 0.54.
Work on A129G G137U yielded a self-cleavage of 1.7.
In the case of U122A A135U, the self-cleavage is reported as 1.
Work on A114U A129G yielded a self-cleavage of 0.06.
In the case of U120C A129U, the self-cleavage is reported as 0.78.
G123C A135G gave a self-cleavage of 0.78.
Variant A116U A117G has a self-cleavage of 0.15.
In the case of C112U U132C, the self-cleavage is reported as 0.01.
For A111G U131C, the self-cleavage was 0.01.
Work on A118U A129G yielded a self-cleavage of 0.85.
U120C A135G gave a self-cleavage of 1.03.
For U120C A135U, the self-cleavage was 0.85.
In the case of C112A A129G, the self-cleavage is reported as 0.01.
Variant A114G U127C has a self-cleavage of 0.11.
U124C U139C showed a self-cleavage of 0.91.
Work on A116G U130C yielded a self-cleavage of 0.25.
Work on A116G A118C yielded a self-cleavage of 0.15.
In the case of U120C A134G, the self-cleavage is reported as 1.3.
For A117C U139C, the self-cleavage was 0.68.
In the case of A114G U122A, the self-cleavage is reported as 0.39.
A114G U122C gave a self-cleavage of 0.16.
Variant A116G U122A has a self-cleavage of 0.5.
U120A U130C gave a self-cleavage of 1.78.
Work on A118U U122C yielded a self-cleavage of 0.89.
With U130A A140G the self-cleavage was 1.02.
With G119U U132C the self-cleavage was 1.41.
A111U A126G gave a self-cleavage of 0.06.
In the case of U124C A125U, the self-cleavage is reported as 1.37.
U122C G137C showed a self-cleavage of 1.67.
With U120C U122C the self-cleavage was 0.32.
A118U U124C showed a self-cleavage of 0.45.
Work on A116G G123A yielded a self-cleavage of 0.19.
With A117G A135G the self-cleavage was 2.66.
G115A U131C showed a self-cleavage of 0.04.
In the case of A126C, the self-cleavage is reported as 0.52.
A126G showed a self-cleavage of 0.84.
In the case of A126U, the self-cleavage is reported as 0.78.
Variant A117G C128U has a self-cleavage of 2.12.
Variant C128G has a self-cleavage of 0.45.
C128U showed a self-cleavage of 0.85.
C128A showed a self-cleavage of 0.84.
G115A showed a self-cleavage of 0.12.
G115C showed a self-cleavage of 0.14.
With G115U the self-cleavage was 0.23.
For U122G G137A, the self-cleavage was 2.2.
In the case of A114G U139C, the self-cleavage is reported as 0.32.
For G115U U131C, the self-cleavage was 0.06.
Variant U122A U131C has a self-cleavage of 0.34.
Work on U122A U131G yielded a self-cleavage of 0.73.
In the case of A118G U139A, the self-cleavage is reported as 0.92.
In the case of A118G U139C, the self-cleavage is reported as 1.43.
U127C A129G showed a self-cleavage of 0.46.
U127A A134U showed a self-cleavage of 1.36.
For U127A A134G, the self-cleavage was 2.3.
In the case of A125G G137U, the self-cleavage is reported as 0.98.
Variant A116U G138U has a self-cleavage of 0.03.
For U130C U133A, the self-cleavage was 2.08.
Work on A126C U132C yielded a self-cleavage of 0.5.
U120C A140G gave a self-cleavage of 1.07.
Work on U127C A135U yielded a self-cleavage of 0.65.
A118G U133A showed a self-cleavage of 1.28.
A111G U130C showed a self-cleavage of 0.01.
Variant A125U U130C has a self-cleavage of 1.66.
For U122A A134G, the self-cleavage was 0.73.
For U120G U130C, the self-cleavage was 1.46.
For A117U U139C, the self-cleavage was 1.57.
A118U U132C showed a self-cleavage of 0.4.
U124C G138C showed a self-cleavage of 1.31.
For U124C A129G, the self-cleavage was 0.8.
Work on U124C A129U yielded a self-cleavage of 0.94.
U124A U131C showed a self-cleavage of 0.36.
Variant A129G U132C has a self-cleavage of 1.16.
Work on U127C U130C yielded a self-cleavage of 0.69.
In the case of C121A U122C, the self-cleavage is reported as 1.62.
Work on C112U U122C yielded a self-cleavage of 0.01.
C112G U120A showed a self-cleavage of 0.01.
Work on A116G U133G yielded a self-cleavage of 0.82.
A125G A129G showed a self-cleavage of 0.41.
Variant U122G A129G has a self-cleavage of 1.33.
Variant C121A U130C has a self-cleavage of 1.87.
For A117U U127C, the self-cleavage was 0.61.
A118G U130C showed a self-cleavage of 0.73.
In the case of A114U U133C, the self-cleavage is reported as 0.14.
With G119A U132C the self-cleavage was 2.46.
Work on U124A yielded a self-cleavage of 0.69.
U124G gave a self-cleavage of 0.98.
Variant U124C has a self-cleavage of 0.62.
In the case of A118G A126C, the self-cleavage is reported as 0.84.
For A118G A126U, the self-cleavage was 1.22.
A126G U132A gave a self-cleavage of 0.69.
In the case of C121A U127C, the self-cleavage is reported as 0.2.
A118G G123A gave a self-cleavage of 0.58.
In the case of A118G U124C, the self-cleavage is reported as 1.37.
Variant U127C A134G has a self-cleavage of 1.09.
In the case of A116G A134U, the self-cleavage is reported as 0.2.
With U130C A135G the self-cleavage was 1.89.
Variant A116U U122A has a self-cleavage of 0.25.
U122C A134G gave a self-cleavage of 1.75.
With U127C G136A the self-cleavage was 0.59.
Variant U130G has a self-cleavage of 1.03.
For U130A, the self-cleavage was 0.92.
Work on U130C yielded a self-cleavage of 0.76.
Work on A125U yielded a self-cleavage of 1.81.
A125C showed a self-cleavage of 0.46.
With A125G the self-cleavage was 0.56.
Work on U124A U130C yielded a self-cleavage of 0.1.
With C121A A140G the self-cleavage was 1.61.
A114C U122C showed a self-cleavage of 0.01.
For U120A A129U, the self-cleavage was 0.57.
With A118G A129G the self-cleavage was 0.29.
For A118G A129U, the self-cleavage was 0.61.
A116G U131A showed a self-cleavage of 0.25.
U122C G136U gave a self-cleavage of 1.86.
In the case of A114U U139A, the self-cleavage is reported as 0.07.
Variant U124C U132G has a self-cleavage of 0.76.
For A126U G137A, the self-cleavage was 1.21.
Variant G123A A129C has a self-cleavage of 0.92.
Work on C121U A135G yielded a self-cleavage of 2.01.
With U124C G137C the self-cleavage was 0.78.
Work on A116G A129G yielded a self-cleavage of 0.41.
With A116G A140U the self-cleavage was 0.92.
In the case of A116G A140G, the self-cleavage is reported as 0.97.
U131A U133A showed a self-cleavage of 0.95.
For A117G U127C, the self-cleavage was 0.77.
With C121U U130C the self-cleavage was 0.92.
For U127C U132C, the self-cleavage was 0.86.
Work on U127C U132G yielded a self-cleavage of 1.62.
Work on C113U A140G yielded a self-cleavage of 0.12.
For U122C U139C, the self-cleavage was 0.78.
For A118G C121A, the self-cleavage was 2.97.
In the case of A118G C121U, the self-cleavage is reported as 1.94.
A118C U122A gave a self-cleavage of 1.12.
A116U U127G showed a self-cleavage of 0.11.
U122C A135C gave a self-cleavage of 0.54.
In the case of A114U G137U, the self-cleavage is reported as 0.3.
G123A showed a self-cleavage of 1.06.
G123C showed a self-cleavage of 1.16.
Variant G123U has a self-cleavage of 1.59.
Variant U124A U132G has a self-cleavage of 0.61.
Work on A117C U120A yielded a self-cleavage of 1.28.
For A111U U122C, the self-cleavage was 0.08.
A117U A129G showed a self-cleavage of 0.47.
For A126G G136A, the self-cleavage was 1.4.
With A129G U130C the self-cleavage was 1.73.
In the case of A129G U130A, the self-cleavage is reported as 1.41.
With A114U U127A the self-cleavage was 0.03.
U130C G138A showed a self-cleavage of 1.41.
U124A A140G showed a self-cleavage of 0.65.
C113U A117G gave a self-cleavage of 0.08.
Variant A118G C128U has a self-cleavage of 0.61.
Work on G119A A129U yielded a self-cleavage of 0.67.
With A117G U120A the self-cleavage was 2.78.
Variant U120C U139A has a self-cleavage of 0.85.
U120C U139G gave a self-cleavage of 1.36.
U131A A134U gave a self-cleavage of 0.77.
Variant A125G G138A has a self-cleavage of 0.47.
A125G G138C showed a self-cleavage of 0.83.
In the case of C128U A140U, the self-cleavage is reported as 2.45.
Work on A125G U133C yielded a self-cleavage of 1.09.
With U120C U124C the self-cleavage was 0.34.
Work on A117G U133C yielded a self-cleavage of 1.85.
Variant A125G U131C has a self-cleavage of 0.2.
In the case of A114U A118G, the self-cleavage is reported as 0.05.
